Key:
[1] = biological target: T1, M2 expressed on MDCK cells infected with influenza A/PR/8/34 (influenza A virus A/PR/8/34, UniProt P06821 1-97); experiment: cell ELISA, A/PR/8/34-infected MDCK, Ab 1 µg/ml, competitor M2 peptide 20 µg/ml
T1 construct: whole, on cells

[2] = biological target: T1, M2 expressed on MDCK cells infected …; experiment: cell ELISA, A/PR/8/34-infected MDCK, Ab 1 µg/ml, no peptide
[3] = biological target: T1, M2 expressed on MDCK cells infected …; experiment: cell ELISA on infected MDCK cells
[4] = biological target: T1, M2 expressed on MDCK cells infected …; experiment: cell ELISA, A/PR/8/34-infected MDCK

T1 sequence (P06821 whole entry): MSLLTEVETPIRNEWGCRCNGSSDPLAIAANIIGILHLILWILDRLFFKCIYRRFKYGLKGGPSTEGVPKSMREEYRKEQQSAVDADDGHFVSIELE

B1: L66 (antibody, V domains shown)
VH: EVQLVESGGGVVRPGGSLRLSCAASGFTFDDYGMSWVRQAPGKGLEWVSGINWNGGSTGYADSVKGRFTISRDNAKNSLYLQMNSLRAEDTALYYCARDRVTMVRGVIMDYYGMDVWGQGTTVTVSS
VL: QTVVTQEPSLTVSPRGTVTLTCSSSTGAVTSGYYPGWFQLKPGQAPMSLIYSARKKHSWTPARFSGSLLGGKAALTLSGVQPEDEAEYYCLLYYGGAYVFGTGTKVTVLG
B1 gave an OD450 with competitor [1] of 0.113 OD450, an OD450 [2] of 0.931 OD450 and an EC50 [3] of 0.117 µg/mL. For the same binder, the “fold greater reactivity than F1 and F2” value [4] was over 100 fold.

B2: C40G1 (antibody, V domains shown)
VH: QLQLQESGPGLVKPSETLSLTCTVSGGSISSSFYYCGWIRQPPGKGLEWIGSIYYRGSTYYNPSLKSRVTISVDTSKNQFSLKLSSVTAADTAVYYCARRVTMVRGVKGDYFDYWGQGTLVTVSS
VL: DIQMTQSPSSLSASVGDRVTITCRASQGISSWLAWYQQKPEKVPKSLIYAASSLQSGVPSRFSGSGSGTDFTLTISSLQPEDFATYYCQQYNYYPLTFGGGTKVEIKR
In the case of B2, the OD450 with competitor [1] is reported as 0.195 OD450, the OD450 [2] is reported as 0.799 OD450 and the EC50 [3] is reported as 0.183 µg/mL. For the same binder, the “fold greater reactivity than F1 and F2” value [4] was over 100 fold.

B3: C40G4 (antibody, V domains shown)
VH: QLQLQESGPGLVKPSETLSLTCTVSGGSISSSFYYCGWIRQPPGKGLEWIGSIYYRGSTYYNPSLKSRVTISVDTSKNQFSLKLSSVTAADTAVYYCARRVTMVRGVKGDYFDYWGQGTLVTVSS
VL: DIQMTQSPSSLSASVGDRVTITCRASQGISSWLAWYQQKPEKVPKSLIYAASSLQSGVPSRFSGSGSGTDFTLTISSLQPEDFATYYCQQYNYYPLTFGGGTKVEIKR
B3 showed an EC50 [3] of 0.301 µg/mL.

B4: N547 (antibody, V domains shown)
VH: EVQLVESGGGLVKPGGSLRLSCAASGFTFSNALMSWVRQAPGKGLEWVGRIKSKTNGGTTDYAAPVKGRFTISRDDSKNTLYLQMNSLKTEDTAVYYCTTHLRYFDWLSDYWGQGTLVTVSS
VL: QSVLTQPPSMSAAPGQKVTISCSGSSSNIGNNYISWYQQLPGTAPKVLIYDNNKRPSGIPDRFSGSKSGTSATLGITGLQTGDEADYYCGSWDSSLSAGVFGTGTKVTVLG
Work on B4 yielded an OD450 with competitor [1] of 0.062 OD450, an OD450 [2] of 0.504 OD450 and an EC50 [3] of 0.104 µg/mL. The “fold greater reactivity than F1 and F2” value [4] was over 100 fold.

Source: patent US20090162366A1 (KIRIN PHARMA, published 2009)
